Source: the supplement of paper PMC10724198
± gives the standard deviation of the averaged measurements.

tested on: Saccharomyces cerevisiae; assay: protein stability index of tFT-peptide fusion (C-terminal peptide) (PSI (0-1 scale)); higher = more stable (slower turnover); conditions: genetic background: wild type; temperature: 30 C
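Further: PSI is a weighted mean of sequencing reads over stability bins, variants kept only with over 10 reads, mCherry proximal and sfGFP distal, peptide attached via GGGS linker.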

| Sequence | protein stability index |
| --- | --- |
| LVSHVPLLPMTP | 0.776 ± 0.03 |
| LVSLPISFPASL | 0.692 ± 0.035 |
| LVSSLVSSEVYM | 0.656 ± 0.019 |
| LVTCPPPVGGPS | 0.691 ± 0.0083 |
| LVTGRVASPPLG | 0.696 ± 0.043 |
| LVTSACPVPPAR | 0.5766 ± 0.002 |
| LVVSHMSQPISM | 0.64 ± 0.03 |
| LWALPTPPPSGH | 0.67 ± 0.1 |
| LWCPLPHGVLLL | 0.608 ± 0.053 |
| LWFPLCRLVRRD | 0.682 ± 0.025 |
| LWFVGVAGFSLV | 0.5715 ± 0.004 |
| LWSIEVEKAKQK | 0.708 ± 0.068 |
| LWSSRPGFDDVW | 0.6426 ± 0.0011 |
| LWVSSGASCFIL | 0.7239 ± 0.0039 |
| LYGILSCNSGCG | 0.672 ± 0.035 |
| LYKYPKRCVDIG | 0.676 ± 0.057 |
| LYRFVSVLSDVH | 0.577 ± 0.012 |
| LYRRLLCYPKTR | 0.675 ± 0.0043 |
| LYSDLLTDDKNC | 0.666 ± 0.023 |
| LYSGIAVSATSL | 0.734 ± 0.048 |
| LYTENSDLDRVF | 0.657 ± 0.039 |
| LYWAYLGASVLL | 0.658 ± 0.013 |
| MAFKLFPFGRNL | 0.73 ± 0.028 |
| MAVYLKYSLLRL | 0.515 ± 0.037 |
| MCNLSLSCEGLG | 0.665 ± 0.045 |
| MCVFGLFCSCFD | 0.586 ± 0.082 |

| Sequence | protein stability index |
| --- | --- |
| MCWGSAEAMGFR | 0.663 ± 0.014 |
| MEGRVARAYSDE | 0.688 ± 0.04 |
| MFCRSPSYFPTV | 0.739 ± 0.035 |
| MFTFIQRPVAQV | 0.6357 ± 0.0054 |
| MGAAWNYANFGL | 0.7011 ± 0.0059 |
| MGLVVGILVGHR | 0.647 ± 0.098 |
| MGLYSNTRNWGS | 0.682 ± 0.034 |
| MKGELRHRWCPL | 0.71 ± 0.046 |
| MKRLTCGGFNLE | 0.704 ± 0.03 |
| MKSRQKPESGPR | 0.6899 ± 0.0056 |
| MLLSVDWAGDEI | 0.796 ± 0.11 |
| MLSFTQRYYSAI | 0.64 ± 0.03 |
| MLSWKASWRQPV | 0.664 ± 0.021 |
| MPGYLIRPPVIS | 0.709 ± 0.0078 |
| MQEMLPSRPIRH | 0.69 ± 0.029 |
| MQLREIIMIEKS | 0.693 ± 0.043 |
| MQSRWAQVEGKE | 0.673 ± 0.055 |
| MRSLLDPLSNSC | 0.7804 ± 0.0065 |
| MSMVVCHGGGGL | 0.663 ± 0.017 |
| MSRPGEGSYIGD | 0.652 ± 0.017 |
| MSSGGSIYMVRT | 0.723 ± 0.018 |
| MTMGSIGNFDQG | 0.611 ± 0.073 |
| MVARFGNEFMFL | 0.695 ± 0.057 |
| MVEFWDLPGRSC | 0.744 ± 0.081 |
| MVGLTTEFGSDG | 0.667 ± 0.015 |
| MVSFEWCLARSY | 0.501 ± 0.054 |

| Sequence | protein stability index |
| --- | --- |
| MVTRSLLLLLHG | 0.599 ± 0.053 |
| MWRWRAHVDRFR | 0.6831 ± 0.0058 |
| MYPAYNRVRFEL | 0.657 ± 0.032 |
| MYRSLPRLKQTY | 0.721 ± 0.031 |
| NAGHTGPYADGN | 0.669 ± 0.043 |
| NAYRLSCGDNTN | 0.683 ± 0.027 |
| NCEVYVGLVLAD | 0.597 ± 0.028 |
| NDGLRRLICGGT | 0.68 ± 0.022 |
| NDKPKTTQKRTP | 0.718 ± 0.0092 |
| NDLYDVLKYLFN | 0.712 ± 0.086 |
| NEGGGGRGETVE | 0.613 ± 0.021 |
| NEIRNKETETVM | 0.665 ± 0.023 |
| NEPEKGQRKRRE | 0.8051 ± 0.0073 |
| NFHVRFVPDGGR | 0.67 ± 0.021 |
| NFRHSVTTSEVN | 0.737 ± 0.013 |
| NGCCLVHAETGP | 0.676 ± 0.032 |
| NGILRGATYQDV | 0.77 ± 0.067 |
| NGLGKGKTKGEI | 0.625 ± 0.1 |
| NGMVDDQSEVNR | 0.682 ± 0.074 |
| NHRANSNPRLRY | 0.731 ± 0.0095 |
| NIAPPNHASIVL | 0.695 ± 0.014 |
| NINNKRNHIHLK | 0.648 ± 0.075 |
| NIRSRKYMLRKS | 0.744 ± 0.085 |
| NKKDHTLTKKRT | 0.661 ± 0.063 |
| NKKFTKQTCKPK | 0.663 ± 0.0011 |
| NKKKYEIKLIME | 0.641 ± 0.06 |

| Sequence | protein stability index |
| --- | --- |
| NKKNKKRIGRNT | 0.736 ± 0.034 |
| NKNTEMNKTQWR | 0.702 ± 0.03 |
| NKRKKKRTEPQP | 0.661 ± 0.013 |
| NKTKKKKKKKRG | 0.659 ± 0.061 |
| NKTRRCTAHVGG | 0.679 ± 0.054 |
| NKYRKNMKSSVP | 0.671 ± 0.019 |
| NLGFTTSWSFDL | 0.766 ± 0.066 |
| NLMTPAWTNFSS | 0.756 ± 0.077 |
| NLRESRSLKGVI | 0.73 ± 0.016 |
| NLRSSTSKNNKR | 0.659 ± 0.079 |
| NLTKTLNNDIIK | 0.68183 ± 0.00011 |
| NLVSCFSSCGSV | 0.628 ± 0.028 |
| NLYLEKLLHSEP | 0.715 ± 0.018 |
| NMGRCEGGKTAR | 0.643 ± 0.016 |
| NMIIPEAVSLSL | 0.672 ± 0.026 |
| NMQRKSRNQIID | 0.707 ± 0.074 |
| NNYRKKKHNYKK | 0.697 ± 0.011 |
| NPGGRPKNTINP | 0.649 ± 0.11 |
| NPPPPAHYSRPP | 0.73 ± 0.031 |
| NPSRASAWPHVH | 0.607 ± 0.061 |
| NRGHWECIRVQR | 0.582 ± 0.059 |
| NRLVQNRQVQLY | 0.682 ± 0.014 |
| NRLVRLSQGGRE | 0.668 ± 0.019 |
